# According to publication PMC11180644, “Discovery, characterization and mechanism of a Microbacterium esterase for key d-biotin chiral intermediate synthesis” (Bioresources and Bioprocessing, 2024):
# B1: EstSIT01 (Microbacterium aurantiacum) (protein)
# chain: MTLFDGITSRIVDTDRLTVNILERAADDPQTPPDRTVVFVHGNVSSALFWQEIMQDLPSDLRAIAVDLRGFGGSEHAPVDATRGVRDFSDDLHATLEALDIPVAHLVGWSMGGGVVMQYALDHPVLSLTLQSPVSPYGFGGTRRDGSRLTDDDAGCGGGGANPDFIQRLIDHDTSDDAQTSPRSVFRAGYVASDYTTDHEDVWVESMLTTSTADGNYPGDAVPSDNWPGFAAGRHGVLNTMAPQYFDVSGIVDLAEKPPILWIHGTADAIVSDASFYDLNYLGQLGIVPGWPGEDVAPAQEMVSQTRDVLGRYAAGGGTVTEVAVEGAGHSAHLERPAVFRHALLEIIGYVGAAADPAPPTEAIIIRSAD
# notes: C-terminal 6xHis tag, pET21a, E. coli BL21(DE3), Ni-NTA purified; catalytic triad Ser110-His330-Asp268
# Substrate: COC(=O)[C@@H]1[C@H](C(=O)OC)N(Cc2ccccc2)C(=O)N1Cc1ccccc1
# Assay: HPLC of released monomethyl ester; Michaelis-Menten fit (GraphPad Prism)
# Format: biochemical, Microbacterium aurantiacum
# Conditions: 0.2 mol/L PBS pH 8.0, 30 °C, 10 min, DMSO as substrate solvent, 0.1-12 mmol/L diester
# Description: HPLC of released monomethyl ester; Michaelis-Menten fit (GraphPad Prism) on […]01 | the Km value
protein,measurement,value
B1,Km,147 µM
same,kcat,5.808 s⁻¹
